The values that follow come from patent US20260217860A1 (BIOCYTOGEN PHARMACEUTICALS BEIJING, published 2026).

Assay [1] addresses T1, His-tagged monkey EGFR protein (fasEGFR-His, ACROBiosystems Inc., Cat #: EGR-C52H1) (monkey).
T1 construct: Bought protein
In words: SPR, Biacore 8K, 1:1 fit.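 Also: His-tagged targets captured on the chip at roughly 100 RU, antibody analytes flowed at 1 µg/mL in HBS-EP+ pH 7.4, 50 s association, 400 s dissociation.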 On the technique in general: SPR reads the build-up and loss of mass on a sensor chip optically.
Method: Specifically, his-tagged proteins were diluted to 200 nM, with 1×HBS-EP+buffer (PH 7.4) and then injected into the Biacore™ 8K biosensor at 10 μL/min for about 50 seconds to achieve a desired protein density (e.g., about 100 response units (RU)). Purified antibodies at 1 μg/mL in 1× HBS-EP+buffer (PH 7.4) were then injected at 10 μL/min for 50 seconds.
Dissociation was monitored for 400 seconds. The chip was regenerated after the last injection of each titration with a glycine solution (pH 1.5) at 30 L/min for 30 seconds.

For assay [2], the target named is T2, His-tagged monkey MUC1 (fasMUC1-His) (monkey, UniProt Q29435 181-380, limits assumed).
T2 construct: not shown: His tag
T2 chain: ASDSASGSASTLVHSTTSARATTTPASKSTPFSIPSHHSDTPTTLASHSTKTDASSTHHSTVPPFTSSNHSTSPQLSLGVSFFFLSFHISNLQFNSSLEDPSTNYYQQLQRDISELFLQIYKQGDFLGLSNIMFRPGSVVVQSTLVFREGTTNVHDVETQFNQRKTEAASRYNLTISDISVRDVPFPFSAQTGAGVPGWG
Put plainly: SPR, Biacore 8K, 1:1 fit.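 Also: His-tagged targets captured on the chip at roughly 100 RU, antibody analytes flowed at 1 µg/mL in HBS-EP+ pH 7.4, 50 s association, 400 s dissociation.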

Assay [3] addresses T3, His-tagged human EGFR protein (hEGFR-His, ACROBiosystems Inc., Cat #: EGR-H5222) (human, UniProt P00533 25-645).
T3 construct: Bought protein; not shown: His tag
Put plainly: SPR, Biacore 8K, 1:1 fit.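 Also: His-tagged targets captured on the chip at roughly 100 RU, antibody analytes flowed at 1 µg/mL in HBS-EP+ pH 7.4, 50 s association, 400 s dissociation.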

The target in assay [4] is T4, His-tagged human MUC1 protein hMUC1(961-1152)-His (human, UniProt P15941 961-1152).
T4 construct: also called hMUC(961-1152)-His; not shown: His tag
Put plainly: SPR, Biacore 8K, 1:1 fit.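 Also: His-tagged targets captured on the chip at roughly 100 RU, antibody analytes flowed at 1 µg/mL in HBS-EP+ pH 7.4, 50 s association, 400 s dissociation.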

For assay [5], the target named is T5, monkey EGFR on CHO-S-fasEGFR cells (monkey, UniProt P55245 25-645).
T5 construct: CHO-S cells transfected with vectors expressing fasEGFR
Put plainly: flow cytometry, transfected CHO-S cells, 5 ug/mL.
Method: (§1) The anti-EGFR/MUC1 bispecific antibodies (5 μg/mL) were added to the 96-well plate, and incubated at 4° C. for 30 min. […] For the negative control (NC), only cells were added and no antibodies were added.

Assay [6] has as its target T6, human EGFR on CHO-S-hEGFR cells (human, UniProt P00533 25-645).
T6 construct: CHO-S cells transfected with vectors expressing hEGFR
Put plainly: flow cytometry, transfected CHO-S cells, 5 ug/mL.
Method: as §1

In assay [7] the target is T7, human MUC1 (484 amino acids) on CHO-S-hMUC1 (484AA) cells (human, UniProt P15941 24-1158).
T7 construct: CHO cells transfected with vectors expressing 484 amino acids of human MUC1
Put plainly: flow cytometry, transfected CHO-S cells, 5 ug/mL.
Method: as §1

For assay [8], the target named is T8, monkey (Macaca fascicularis) MUC1 on CHO-S-fasMUC1 cells (monkey (Macaca fascicularis)).
T8 construct: CHO-S cells transfected with vectors expressing fasMUC1; also called monkey MUC1
T8 chain: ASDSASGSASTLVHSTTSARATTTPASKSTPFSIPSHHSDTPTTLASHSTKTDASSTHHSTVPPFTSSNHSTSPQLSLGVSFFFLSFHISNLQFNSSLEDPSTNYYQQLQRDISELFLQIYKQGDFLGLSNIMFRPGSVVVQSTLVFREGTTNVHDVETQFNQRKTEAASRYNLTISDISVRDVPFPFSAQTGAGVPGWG
Put plainly: flow cytometry, transfected CHO-S cells, 5 ug/mL. On the technique in general: In flow cytometry, cells or beads pass a laser one at a time.
Method: as §1

B1: E-9A6-M-11E8 (bispecific antibody)
heavy 1: not shown
heavy 2: QVQLVQSGGGVVQPGRSLRLSCAASGFTFSSYAMHWVRQAPGKGLEWVAVISDDGINKYYADSVKGRFTISRDNSKNTLYLQMNSLRAEDSAVYYCARALPTIFGVVMYFYYGLDVWGQGTTATVSSASTKGPSVFPLAPSSKSTSGGTAALGCLVKDYFPEPVTVSWNSGALTSGVHTFPAVLQSSGLYSLSSVVTVPSSSLGTQTYICNVNHKPSNTKVDKKVEPKSCDKTHTCPPCPAPELLGGPSVFLFPPKPKDTLMISRTPEVTCVVVDVSHEDPEVKFNWYVDGVEVHNAKTKPREEQYNSTYRVVSVLTVLHQDWLNGKEYKCKVSNKALPAPIEKTISKAKGQPREPQVCTLPPSREEMTKNQVSLSCAVKGFYPSDIAVEWESNGQPENNYKTTPPVLDSDGSFFLVSKLTVDKSRWQQGNVFSCSVMHEALHNHYTQKSLSLSPGK
light: not shown
notes: Knobs-into-holes bispecific with a common light chain; also called anti-EGFR/MUC1 bispecific antibody
For orientation: Kd means the constant that tells how readily two partners part at equilibrium. By koff is commonly meant the rate constant with which the complex falls apart. A word on the kon: it is the second-order rate constant of association. B1: the Kd in assay [1] turned out to be 5.44 nM; in assay [2], 40.5 nM; in assay [3], 5.54 nM; in assay [4] it was 9.99 nM. For the same molecule, the off-rate (koff) in assay [1] was 0.00116 s⁻¹; in assay [2], 0.0162 s⁻¹; in assay [3] it was 0.00101 s⁻¹; in assay [4], 0.00218 s⁻¹. Besides, the kon is 213000 M⁻¹ s⁻¹ in assay [1], 401000 M⁻¹ s⁻¹ in assay [2], 183000 M⁻¹ s⁻¹ in assay [3] and 218000 M⁻¹ s⁻¹ in assay [4]. In addition, the “Percentage of Positive Cells (%)” value in assay [5] is 23%; in assay [6], 63.3%; in assay [7], 93.5%; in assay [8] it was 45.1%.

B2: E-9F3-M-11E8 (bispecific antibody)
heavy 1: not shown
heavy 2: QVQLVQSGGGVVQPGRSLRLSCAASGFTFSSYAMHWVRQAPGKGLEWVAVISDDGINKYYADSVKGRFTISRDNSKNTLYLQMNSLRAEDSAVYYCARALPTIFGVVMYFYYGLDVWGQGTTATVSSASTKGPSVFPLAPSSKSTSGGTAALGCLVKDYFPEPVTVSWNSGALTSGVHTFPAVLQSSGLYSLSSVVTVPSSSLGTQTYICNVNHKPSNTKVDKKVEPKSCDKTHTCPPCPAPELLGGPSVFLFPPKPKDTLMISRTPEVTCVVVDVSHEDPEVKFNWYVDGVEVHNAKTKPREEQYNSTYRVVSVLTVLHQDWLNGKEYKCKVSNKALPAPIEKTISKAKGQPREPQVCTLPPSREEMTKNQVSLSCAVKGFYPSDIAVEWESNGQPENNYKTTPPVLDSDGSFFLVSKLTVDKSRWQQGNVFSCSVMHEALHNHYTQKSLSLSPGK
light: not shown
notes: as for B1
In the case of B2, the Kd is 28.7 nM in assay [1], 25.7 nM in assay [2], 28.7 nM in assay [3] and 2.63 nM in assay [4]. Also, the koff turned out to be 0.00193 s⁻¹ in assay [1], 0.011 s⁻¹ in assay [2], 0.00203 s⁻¹ in assay [3] and 0.000881 s⁻¹ in assay [4]. For the same molecule, the kon is 67100 M⁻¹ s⁻¹ in assay [1], 426000 M⁻¹ s⁻¹ in assay [2], 70700 M⁻¹ s⁻¹ in assay [3] and 336000 M⁻¹ s⁻¹ in assay [4]. For the same molecule, the “Percentage of Positive Cells (%)” value in assay [5] turned out to be 20.5%; in assay [6] it was 58.8%; in assay [7], 94.2%; in assay [8] it was 45.5%.

B3: E-9D2-M-11E8 (bispecific antibody)
heavy 1: not shown
heavy 2: QVQLVQSGGGVVQPGRSLRLSCAASGFTFSSYAMHWVRQAPGKGLEWVAVISDDGINKYYADSVKGRFTISRDNSKNTLYLQMNSLRAEDSAVYYCARALPTIFGVVMYFYYGLDVWGQGTTATVSSASTKGPSVFPLAPSSKSTSGGTAALGCLVKDYFPEPVTVSWNSGALTSGVHTFPAVLQSSGLYSLSSVVTVPSSSLGTQTYICNVNHKPSNTKVDKKVEPKSCDKTHTCPPCPAPELLGGPSVFLFPPKPKDTLMISRTPEVTCVVVDVSHEDPEVKFNWYVDGVEVHNAKTKPREEQYNSTYRVVSVLTVLHQDWLNGKEYKCKVSNKALPAPIEKTISKAKGQPREPQVCTLPPSREEMTKNQVSLSCAVKGFYPSDIAVEWESNGQPENNYKTTPPVLDSDGSFFLVSKLTVDKSRWQQGNVFSCSVMHEALHNHYTQKSLSLSPGK
light: not shown
notes: as for B1
As to B3, the Kd in assay [1] was 52.2 nM; in assay [2], 19.1 nM; in assay [3], 59.5 nM; in assay [4], 2.79 nM. The koff was found to be 0.0248 s⁻¹ in assay [1], 0.00896 s⁻¹ in assay [2], 0.02 s⁻¹ in assay [3] and 0.000543 s⁻¹ in assay [4]. Besides, the kon was determined as 476000 M⁻¹ s⁻¹ in assay [1], 470000 M⁻¹ s⁻¹ in assay [2], 337000 M⁻¹ s⁻¹ in assay [3] and 195000 M⁻¹ s⁻¹ in assay [4]. In addition, the “Percentage of Positive Cells (%)” value in assay [5] was 16.8%; in assay [6], 50.1%; in assay [7] it was 93.8%; in assay [8], 47%.

B4: E-6C4-M-11E8 (bispecific antibody)
heavy 1: not shown
heavy 2: QVQLVQSGGGVVQPGRSLRLSCAASGFTFSSYAMHWVRQAPGKGLEWVAVISDDGINKYYADSVKGRFTISRDNSKNTLYLQMNSLRAEDSAVYYCARALPTIFGVVMYFYYGLDVWGQGTTATVSSASTKGPSVFPLAPSSKSTSGGTAALGCLVKDYFPEPVTVSWNSGALTSGVHTFPAVLQSSGLYSLSSVVTVPSSSLGTQTYICNVNHKPSNTKVDKKVEPKSCDKTHTCPPCPAPELLGGPSVFLFPPKPKDTLMISRTPEVTCVVVDVSHEDPEVKFNWYVDGVEVHNAKTKPREEQYNSTYRVVSVLTVLHQDWLNGKEYKCKVSNKALPAPIEKTISKAKGQPREPQVCTLPPSREEMTKNQVSLSCAVKGFYPSDIAVEWESNGQPENNYKTTPPVLDSDGSFFLVSKLTVDKSRWQQGNVFSCSVMHEALHNHYTQKSLSLSPGK
light: not shown
notes: as for B1
In the case of B4, the Kd is 79.3 nM in assay [1], 25.7 nM in assay [2], 91.8 nM in assay [3] and 2.66 nM in assay [4]. Further, the koff in assay [1] was found to be 0.0291 s⁻¹; in assay [2], 0.0102 s⁻¹; in assay [3], 0.0264 s⁻¹; in assay [4] it was 0.00109 s⁻¹. Besides, the on-rate constant (kon) in assay [1] stood at 367000 M⁻¹ s⁻¹; in assay [2], 398000 M⁻¹ s⁻¹; in assay [3], 287000 M⁻¹ s⁻¹; in assay [4] it was 410000 M⁻¹ s⁻¹. In addition, the “Percentage of Positive Cells (%)” value in assay [5] was 18.3%; in assay [6], 48.1%; in assay [7], 94%; in assay [8], 48.2%.

B5: E-9H2-M-11E8 (bispecific antibody)
heavy 1: not shown
heavy 2: QVQLVQSGGGVVQPGRSLRLSCAASGFTFSSYAMHWVRQAPGKGLEWVAVISDDGINKYYADSVKGRFTISRDNSKNTLYLQMNSLRAEDSAVYYCARALPTIFGVVMYFYYGLDVWGQGTTATVSSASTKGPSVFPLAPSSKSTSGGTAALGCLVKDYFPEPVTVSWNSGALTSGVHTFPAVLQSSGLYSLSSVVTVPSSSLGTQTYICNVNHKPSNTKVDKKVEPKSCDKTHTCPPCPAPELLGGPSVFLFPPKPKDTLMISRTPEVTCVVVDVSHEDPEVKFNWYVDGVEVHNAKTKPREEQYNSTYRVVSVLTVLHQDWLNGKEYKCKVSNKALPAPIEKTISKAKGQPREPQVCTLPPSREEMTKNQVSLSCAVKGFYPSDIAVEWESNGQPENNYKTTPPVLDSDGSFFLVSKLTVDKSRWQQGNVFSCSVMHEALHNHYTQKSLSLSPGK
light: not shown
notes: Knobs-into-holes bispecific with a common light chain; also called anti-EGFR/MUC1 bispecific antibody; E-9H2-M-llE8
On to B5, for which the Kd in assay [1] worked out at 80.1 nM; in assay [2] it was 2.69 nM; in assay [3] it was 88.3 nM; in assay [4] it was 6.19 nM. Moreover, the koff worked out at 0.0173 s⁻¹ in assay [1], 0.00105 s⁻¹ in assay [2], 0.0157 s⁻¹ in assay [3] and 0.000571 s⁻¹ in assay [4]. Besides, the kon was 215000 M⁻¹ s⁻¹ in assay [1], 389000 M⁻¹ s⁻¹ in assay [2], 178000 M⁻¹ s⁻¹ in assay [3] and 92300 M⁻¹ s⁻¹ in assay [4]. Besides, the “Percentage of Positive Cells (%)” value in assay [5] worked out at 15.1%; in assay [6] it was 49.3%; in assay [7], 94%; in assay [8] it was 47%.
